Patent US20240287156A1 (published 2024)

Tests used:
[1] = biological target: T1, MAGEA4 peptide on HLA-A*01:01 (human); test: IFN-gamma ELISA after 18 h; 1x10^5 TCR-transduced T cells with 5x10^4 peptide-loaded K562-A*01:01; two donors pooled, non-linear regression; full-length, on cells
T1 peptide: EVDPASNTY
Experimental: FIG. 6. […] The results of two donors were pooled and normalized as percentage of max. The depicted EC50 value was calculated by non-linear regression.
To calculate the EC50 value, non-linear regression was used to create a dose-response curve (FIG. 6). […] The K562 cells express HLA-A*01:01.

[2] = biological target: T2, MAGEA4 peptide on HLA-A*01:01 (human); test: cytokine release
T2 peptide: EVDPASNTYT
Experimental: (§1) FIG. 7. […] IFNγ release to the supernatant was measured by ELISA after 18 hours of coculture.

[3] = biological target: T3, MAGEA4 peptide on HLA-A*01:01 (human); test: cytokine release
T3 peptide: LTQDWVQENY
Experimental: as §1

[4] = biological target: T4, MAGEA3 peptide on HLA-A*01:01 (human); test: cytokine release
T4 peptide: EVDPIGHLY
Experimental: as §1

[5] = biological target: T5, MAGEA4 peptide on HLA-A*01:01 (human); test: cytokine release
T5 peptide: DWVQENYLEY
Experimental: as §1

[6] = biological target: T6, MAGEA4 peptide on HLA-A*01:01 (human); test: cytokine release
T6 peptide: WVQENYLEY
Experimental: as §1

[7] = biological target: T7, MAGEA4 peptide on HLA-A*01:01 (human); test: cytokine release
T7 peptide: TQDWVQENY
Experimental: as §1

[8] = biological target: T8, MAGEA4 peptide on HLA-A*01:01 (human); test: cytokine release
T8 peptide: KEVDPASNTY
Experimental: as §1

[9] = biological target: T9, titin peptide on HLA-A*01:01 (human); test: cytokine release
T9 peptide: ESDPIVAQY
Experimental: as §1

[10] = biological target: T10, MAGEA4 peptide on HLA-A*01:01 (human); test: cytokine release
T10 peptide: TLVTCLGLSY
Experimental: as §1

[11] = biological target: T11, MAGEA4 peptide on HLA-A*01:01 (human); test: cytokine release
T11 peptide: WVQENYLEYR
Experimental: as §1

[12] = biological target: T12, MAGEA4 peptide on HLA-A*01:01 (human); test: cytokine release
T12 peptide: ELAHFLLRKY
Experimental: as §1

[13] = biological target: T13, MAGEA4 peptide on HLA-A*01:01 (human); test: cytokine release
T13 peptide: LVTCLGLSY
Experimental: as §1

[14] = biological target: T14, MAGEA4 peptide on HLA-A*01:01 (human); test: cytokine release
T14 peptide: TTEEQEAAV
Experimental: as §1

EC50 of peptide [1]: 7.6 nM | binding result [2]: recognises | binding result [3]: no recognition | binding result [4]: no recognition | binding result [5]: no recognition | binding result [6]: no recognition | binding result [7]: no recognition | binding result [8]: recognises | binding result [9]: no recognition | binding result [10]: no recognition | binding result [11]: no recognition | binding result [12]: no recognition | binding result [13]: no recognition | binding result [14]: no recognition
B1: CTC-TCR127 (TCR)
alpha TRAV35*01 CDR3: AGQLWGGSNYKLT
beta TRBV5-1*01 CDR3: ASSLAGTGAHFITNEKLF
